This sample holds only a part of the variants without activity.
B1: TPR 5TU (parent)
chain: GGAUCUUCUCGAUCUAACAAAAAAGACAAAUCUGCCACAAAGCUUGAGAGCAUCUUCGGAUGCAGAGGCGGCAGCCUUCGGUGGCGCGAUAGCGCCAACGUUCUCAACUAUGACACGCAAAACGCGUGCUCCGUUGAAUGGAGUUUAUCAUG

Variants of: B1
Assay: polymerase ribozyme fitness, log enrichment relative to wild type (log ratio); higher = more active; in vitro selection for triplet polymerase activity
How it was run: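 Mutant libraries of both subunits of a heterodimeric triplet polymerase ribozyme were PCR-built, transcribed, and selected once in triplicate, with frozen incubation at −7 °C and capture of gel-excised extended constructs on streptavidin beads before RT-PCR. Illumina sequencing of input and output libraries was filtered to genotypes with ≥10 input reads and ≥1 read per output. Fitness is the logarithm of genotype enrichment over wild-type enrichment, using inverse-variance-weighted replicate averages. The logarithm is base 2.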

Row | Variant | polymerase ribozyme fitness (log ratio)
1 | C96U G124U | -0.372
2 | C96U G124A | -0.382
3 | G124C G143U | -3.2
4 | G112A U148C | -4.13
5 | C96A A97G G143A | -0.965
6 | C96A U134A | -2.73
7 | C118U A142G U148C | -2.86
8 | C118U A119U | -0.842
9 | C96G U148A | -3.53
10 | A98U A147C | 0.168
11 | C96G C116G | 0.127
12 | A98U C105U | 0.54
13 | C114U A122G | -1.87
14 | C96U A115C | -2.68
15 | C116A U148C | -3.09
16 | C99G U146G | -1.32
17 | A113U C116U | -1.33
18 | U101G A115G | -0.695
19 | C103G U130A | -4.04
20 | G94U G140U | -3.84
21 | C95G A98G | -1.57
22 | C116G G124C U148C | ≤ -4.2
23 | C118A | -0.751
24 | C118G | -1.01

Row | Variant | polymerase ribozyme fitness (log ratio)
25 | C118U | -0.256
26 | C96G U102A U109C | ≤ -4.2
27 | U102C C114G | -4.11
28 | C96G A115G C123A A147U | -0.404
29 | G94U U148C | -2.92
30 | U101G A150G | -0.649
31 | G124C G136A | -2.84
32 | C96U C123U G136U | -2.2
33 | G94U C123G G141A U146C | -2.83
34 | A119U A121G U135C U146A A150G | -3.77
35 | C95U A97U C99U G133U A150G | ≤ -4.2
36 | C103A A150G | -4.09
37 | G94U G141C U144G | -1.83
38 | C96U A147U | 1.21
39 | C96U A147G | -1.18
40 | C116U G141U | 1.29
41 | A121C A137U A147G | ≤ -4.2
42 | G94U U102C | -2.06
43 | C96U U102C C125U | -2.51
44 | C108U G136U | -3.41
45 | C96A U145A | 0.431
46 | U109A G124A G140C | ≤ -4.2
47 | A115G G124C C132G A137U | ≤ -4.2
48 | A98G U101C G143U C149U | ≤ -4.2

Row | Variant | polymerase ribozyme fitness (log ratio)
49 | A119U G140U | -3.25
50 | A120C G141C | -0.144
51 | A98U A107U C125A A147G | ≤ -4.2
52 | C95U C99A | -0.15
53 | C95U C99U | -1.09
54 | G94C A106C C116U | -3.12
55 | C99A A120C U148G | ≤ -4.2
56 | U101A C105U C114A | -3.17
57 | A121U G143C | -1.7
58 | C96U U102G U144A A150U | ≤ -4.2
59 | U104A G143A | -1.63
60 | C114A C132U G133C | -3.96
61 | C96G A98U | -0.873
62 | C99A U134G | -2.57
63 | C99G U134C | -0.713
64 | G100A G124A | ≤ -4.2
65 | G94U A147G | -1.51
66 | C95U U104G | -2.11
67 | U102G G141C | -3.94
68 | G94U C116G | -0.502
69 | A97U U148C | -1.51
70 | U101G A138U | -3.25
71 | U104C C116G | 0.144
72 | A122G G143A | -1.03

Row | Variant | polymerase ribozyme fitness (log ratio)
73 | C96A A115C | -0.888
74 | C96A A115U | -2.29
75 | A97U U104G | -0.956
76 | C96A U134C A138G G141C | -4.07
77 | G94U U151A | ≤ -4.2
78 | C95U U139G U148A | -3.14
79 | U104G A142G G152U | -3.73
80 | C96A C125G | -0.535
81 | G94C A122C | -0.988
82 | C95U G141U | 0.762
83 | C99U G141A | -0.231
84 | U101A | 0.177
85 | U101C | 0.385
86 | U101G | 0.557
87 | G94U G100U | -3.85
88 | A121C C123A U127C | -1.91
89 | A98G G133C | -1.69
90 | A97G G133A | -3.61
91 | A107C C116G | -3.74
92 | C105G | -0.829
93 | C105A | -0.411
94 | C105U | 0.527
95 | C105U A138U | -2.82
96 | A98G U127C | -3.01

Row | Variant | polymerase ribozyme fitness (log ratio)
97 | G117U G143A | -0.982
98 | A97U U134G | -2.5
99 | C114U U139C | -3.63
100 | U102G A120U | -1.94
101 | G94C A106G | -1.31
102 | C114U U151C | ≤ -4.2
103 | C114U U151G | -4.08
104 | C96A G133U | -3.9
105 | C99U U104G | -1.84
106 | C96A U151G | ≤ -4.2
107 | C96A A97G | -0.635
108 | C116U U145C U148C | -2.77
109 | U104C A106G | -0.701
110 | U102A C114U A115G A120U | -3.62
111 | U109A U151A | ≤ -4.2
112 | U109G U139C A142U | -3.41
113 | C103G G143U | ≤ -4.2
114 | U101G A120G | -0.0391
115 | A107U G141C | -3.87
116 | C95U C103G | -1.69
117 | A97U G152A | -2.62
118 | C96A C118U U148C | -2.57
119 | C99U G143C | -2.66
120 | A119U G126A U135C G141C | -3.75

Row | Variant | polymerase ribozyme fitness (log ratio)
121 | U104G C118A A122C | -2.35
122 | U101G U134A U144C A150U | -4.09
123 | C103G A120U U146G | -1.37
124 | C114U A137C | -3.52
125 | U102G A142U | -3.35
126 | G94C G124U G143U | -3.6
127 | C99U G126U | -0.0913
128 | C103A U109G | -3.53
129 | A110C A121U | -4.04
130 | C96U C99A G133C G141A | ≤ -4.2
131 | C96U A121U U139A | ≤ -4.2
132 | C96G U139G G140U C149A | ≤ -4.2
133 | A97G A98U | -0.253
134 | U102C U134G G136U A138U | ≤ -4.2
135 | U111A G124A U135C | -3.76
136 | A121G G141U C149U | -3.72
137 | G94C A150U | 1.09
138 | A121G U144C | -0.191
139 | C96G C114U | -2.18
140 | C96G C114A | -4.19
141 | C95U C116G U135A | -2.67
142 | C96A A150C | -3.12
143 | C96G A97U C118A | -3.08
144 | G100U A142C | -4.17

Row | Variant | polymerase ribozyme fitness (log ratio)
145 | G94C U135A G141A | -2.22
146 | C96A A106C | -0.591
147 | C96A C118U | -1.8
148 | U104G A113U U127A G141A | ≤ -4.2
149 | A113G A147C | -2.73
150 | C99U G117C | 0.786
151 | C123A G141C | 0.333
152 | C114U G124U | -3.13
153 | C114U G124C | -4.11
154 | A120U U135C | -2.85
155 | C99U U104A U109C A115G | -3.79
156 | C95U U146G | -1.04
157 | G94C U127C | -2.45
158 | A121G U135A | -0.777
159 | C99U G126A G143U | -3.55
160 | G94C G128U | -3.18
161 | C116U U146A | -0.753
162 | C96U A97G | -0.535
163 | C96U A97U | -0.832
164 | A98U U134G | -2.65
165 | C95U C149A | ≤ -4.2
166 | C96G G141A | -0.288
167 | U109C C114U | -3.87
